Measurements from patent publication US20220324953A1 (JIANGSU HENGRUI MEDICINE, published 2022).
Substitutions are numbered along the chain they refer to. Blank lines part the entries; values can stand above or below the binder they belong to.

Key:
[1] = target: T1, human CTGF (antigen of the Biacore assays) (human, UniProt P29279 27-349); assay: Biacore, antibody captured on Protein A, CTGF in flow, 1:1 fit
T1 construct: also called antigen human CTGF; human CTGF protein
T1 sequence (looked up): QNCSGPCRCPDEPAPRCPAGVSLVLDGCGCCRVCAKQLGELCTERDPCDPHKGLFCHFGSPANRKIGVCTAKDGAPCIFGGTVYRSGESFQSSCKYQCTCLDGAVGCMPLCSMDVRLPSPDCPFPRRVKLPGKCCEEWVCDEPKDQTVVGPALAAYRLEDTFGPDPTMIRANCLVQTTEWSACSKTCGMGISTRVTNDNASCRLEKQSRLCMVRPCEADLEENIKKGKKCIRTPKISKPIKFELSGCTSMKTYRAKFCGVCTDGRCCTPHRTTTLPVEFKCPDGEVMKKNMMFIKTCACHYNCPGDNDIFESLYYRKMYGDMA
Description: (§1) A certain amount of each of the test antibodies was affinity-captured with Protein A biosensor chip (Cat. # 29127556, GE), and then a certain concentration of human or mouse CTGF was allowed to flow through the surface of the chip. The reaction signals were detected in real time with Biacore instrument to generate a binding and dissociation curve. After the dissociation was completed in each cycle, the biosensor chip was washed and regenerated with Glycine-HCl regeneration solution pH 1.5 (Cat. # BR-1003-54, GE). The running buffer for the assay was 1×HBS-EP buffer solution (Cat. # BR-1001-88, GE).

[2] = target: T2, mouse CTGF (antigen of the Biacore assay) (mouse, UniProt P29268 26-348); assay: Biacore, antibody captured on Protein A, mouse CTGF in flow, 1:1 fit
T2 construct: also called mouse CTGF protein
T2 sequence (looked up): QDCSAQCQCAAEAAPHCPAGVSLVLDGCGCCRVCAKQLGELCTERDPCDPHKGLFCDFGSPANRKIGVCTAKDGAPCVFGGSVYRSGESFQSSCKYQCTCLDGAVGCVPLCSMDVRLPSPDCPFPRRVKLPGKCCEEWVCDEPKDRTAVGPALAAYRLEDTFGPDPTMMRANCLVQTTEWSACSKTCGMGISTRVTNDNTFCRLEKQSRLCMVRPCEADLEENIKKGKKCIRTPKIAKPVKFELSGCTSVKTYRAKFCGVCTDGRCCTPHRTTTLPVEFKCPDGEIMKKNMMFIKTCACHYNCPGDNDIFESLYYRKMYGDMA
Description: as §1

[3] = target: T1, human CTGF (antigen of the Biacore …); assay: Biacore, CTGF immobilised, antibody 150 µg/ml then 50 nM TGF-β1 (competitor TGF-β1)
Description: First, the antigen human CTGF was immobilized onto a CMS biosensor chip (Cat. # BR-1005-30, GE) by amino coupling, with an immobilization level of 1500 RU, and then a high concentration of CTGF antibody (150 μg/ml) was allowed to flow through the surface of the chip for 150 s; 50 nM TGF-β1 protein was injected for 120 s, and the reaction signals were detected in real time with the Biacore T200 instrument to generate a binding and dissociation curve. After the dissociation was completed in each of the experimental cycles, the biosensor chip was washed and regenerated with regeneration buffer.
The resulting experimental data were statistically analyzed with GE Biacore T200 Evaluation version 3.0 software.

[4] = target: T3, human CTGF protein (R&D, Cat No. 9190-CC) (human, UniProt P29279 27-349); assay: ELISA, plate coated with CTGF (R&D 9190-CC)
T3 construct: Bought protein; also called CTGF recombinant protein; CTGF (R&D)
T3 sequence: T1 sequence (looked up) with H57D
Description: The binding activity of anti-human CTGF antibody to human CTGF protein was tested by ELISA assay and Biacore. A 96-well microtiter plate was directly coated with the CTGF recombinant protein. The signal strength upon the addition of the antibody was used to determine the binding activity of the antibody to CTGF. The specific experimental procedures were as follows:
The CTGF protein (R&D, Cat No. 9190-CC) was diluted with PBS, pH 7.4 (Shanghai Yuanpei, Cat No. B320) buffer to a concentration of 0.2 μg/ml, 50 μl/well of which was added into the 96-well microtiter plate (Corning, Cat No. CLS3590-100EA), and incubated in an incubator at 37° C. for 2 hours or at 4° C. overnight (16-18 hours). The liquid was removed, 250 μl/ well blocking solution (5% skim milk (BD skim milk, Cat No.232100) diluted in PBS) was added, and incubated in an incubator at 37° C. for 3 hours or at 4° C. overnight (16-18 hours) for blocking. After the blocking was finished, the blocking solution was removed, the plate was washed for 5 times with PBST buffer (PBS containing 0.1% Tween-20, pH 7.4), 50 μl/well of various concentrations of each of the test antibodies (antibodies purified from hybridoma or humanized antibodies) diluted with sample dilution solution were added, and incubated in an incubator at 37° C. for 1 hours. After the incubation was finished, the plate was washed for 3 times with PBST, 50 μl/well of HRP-labeled goat anti-mouse secondary antibody (Jackson Immuno Research, Cat No. 115-035-003) or goat anti-human secondary antibody (Jackson Immuno Research, Cat No. 109-035-003) diluted with sample dilution solution was added, and incubated at 37° C. for 1 hour. The plate was washed for 3 times with PBST, 50 μl/well of TMB chromogenic substrate (KPL, Cat No. 52-00-03) was added, incubated at room temperature for 5-10min, and 50 μl/well of 1 M H₂SO₄ was added to stop the reaction. The absorbance value was read by a microplate reader (Molecular Devices, VERSA max) at a wavelength of 450 nm, and the data was analyzed with GraphPad Prism 5. The binding of CTGF antibody to human CTGF protein was calculated as EC50 value.

[5] = target: T4, Cynomolgus CTGF-Fc (fusion protein of cynomolgus CTGF coding region with Fc) (cynomolgus); assay: ELISA, cyno-CTGF-Fc captured by anti-mFc
T4 construct: also called cyno-CTGF-mFc protein; cyno-CTGF protein with Fc tag
Description: The binding activity of anti-monkey CTGF antibody to monkey CTGF protein was tested by ELISA assay. A 96-well microtiter plate was directly coated with anti-mFc protein, and then the cyno-CTGF protein with Fc tag was bound to the plate, and then the antibody was added. The signal strength upon the addition of the antibody was used to determine the binding activity of the antibody to cyno-CTGF. The specific experimental procedures were as follows:
The anti-mFc Protein (Sigma, Cat No. M4280) was diluted with PBS, pH 7.4 (Shanghai Yuanpei, Cat No. B320) buffer to a concentration of 2 μg/ml, which was added into the 96-well microtiter plate (Corning, Cat No. CLS3590-100EA) at 50 μl/well, and incubated in an incubator at 37° C. for 2 hours. The liquid was removed, 250 μl/well blocking solution (5% skim milk (BD skim milk, Cat No.232100) diluted in PBS) was added, and incubated in an incubator at 37° C. for 3 hours or at 4° C. overnight (16-18 hours) for blocking. After the blocking was finished, the blocking solution was removed, the plate was washed for 3 times with PBST buffer (PBS containing 0.1% Tween-20, pH 7.4), 50 μl of 1 μg/ml cyno-CTGF-mFc protein was added into each well, incubated in an incubator at 37° C. for 1 hour, and then the plate was washed for 3 times with PBST buffer (PBS containing 0.1% Tween-20, pH 7.4). 50 μl/well of various concentrations of each of the test antibodies (antibodies purified from hybridoma or humanized antibodies) diluted with sample dilution solution were added, and incubated in an incubator at 37° C. for 1 hours. After the incubation was finished, the plate was washed for 3 times with PBST, 50 μl/well of HRP-labeled goat anti-mouse secondary antibody (Jackson Immuno Research, Cat No. 115-035-003) or goat anti-human secondary antibody (Jackson Immuno Research, Cat No. 109-035-003) diluted with sample dilution solution was added, and incubated at 37° C. for 1 hour. The plate was washed for 5 times with PBST, 50 μl/well of TMB chromogenic substrate (KPL, Cat No. 52-00-03) was added, incubated at room temperature for 5-10 min, and 50 μl/well of 1 M H₂SO₄ was added to stop the reaction. The absorbance value was read by a microplate reader (Molecular Devices, VERSA max) at a wavelength of 450 nm, and the data was analyzed with GraphPad Prism 5. The binding of CTGF antibody to cyno CTGF protein was calculated as EC50 value.

T4 sequence (chain, as listed by the source limits assumed): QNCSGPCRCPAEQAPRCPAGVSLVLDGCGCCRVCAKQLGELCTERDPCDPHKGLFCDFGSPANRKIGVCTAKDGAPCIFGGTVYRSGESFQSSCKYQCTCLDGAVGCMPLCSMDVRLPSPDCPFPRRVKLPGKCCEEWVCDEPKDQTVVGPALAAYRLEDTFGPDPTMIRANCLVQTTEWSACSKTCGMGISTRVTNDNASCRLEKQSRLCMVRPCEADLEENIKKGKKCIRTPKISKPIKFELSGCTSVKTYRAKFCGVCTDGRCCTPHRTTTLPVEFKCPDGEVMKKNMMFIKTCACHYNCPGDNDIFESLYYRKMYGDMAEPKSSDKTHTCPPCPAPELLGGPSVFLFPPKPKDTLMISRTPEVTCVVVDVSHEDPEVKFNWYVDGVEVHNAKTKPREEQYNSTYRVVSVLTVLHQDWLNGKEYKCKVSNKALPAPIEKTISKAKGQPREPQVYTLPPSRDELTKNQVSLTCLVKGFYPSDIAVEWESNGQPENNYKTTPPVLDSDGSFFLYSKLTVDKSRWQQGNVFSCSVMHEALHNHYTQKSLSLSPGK

Kd [1]: 66.2 pM | koff [1]: 0.00227 s⁻¹ | kon [1]: 3.43e+07 M⁻¹ s⁻¹ | Kd [2]: 36.3 pM | koff [2]: 0.00194 s⁻¹ | kon [2]: 5.34e+07 M⁻¹ s⁻¹ | Function-blocking percentage (%) [3]: 53.9% | EC50 [4]: 60 pM
B1: Hu164-67yl (antibody, human IgG1, lambda)
heavy: EVTLKESGPVLVKPTETLTLTCTVSGFSLSTFGVHWIRQPPGKGLEWLGVIWRRGGTDYNAAFMSRLTISKDTSKSQVVFTMTNMDPVDTATYYCARDGGFDYWGQGTTVTVSSASTKGPSVFPLAPSSKSTSGGTAALGCLVKDYFPEPVTVSWNSGALTSGVHTFPAVLQSSGLYSLSSVVTVPSSSLGTQTYICNVNHKPSNTKVDKKVEPKSCDKTHTCPPCPAPELLGGPSVFLFPPKPKDTLYITREPEVTCVVVDVSHEDPEVKFNWYVDGVEVHNAKTKPREEQYNSTYRVVSVLTVLHQDWLNGKEYKCKVSNKALPAPIEKTISKAKGQPREPQVYTLPPSRDELTKNQVSLTCLVKGFYPSDIAVEWESNGQPENNYKTTPPVLDSDGSFFLYSKLTVDKSRWQQGNVFSCSVMHEALHNHYTQKSLSLSPGK
light: ETVVTQEPSLTVSPGGTVTLTCRSSIGAVTTSNYANWVQQKPGQAFRGLIGGTSNRAPWTPARFSGSLLGGKAALTLSGVQPEDEAEYYCALWYSTHYVFGGGTKLTVLGQPKANPTVTLFPPSSEELQANKATLVCLISDFYPGAVTVAWKADGSPVKAGVETTKPSKQSNNKYAASSYLSLTPEQWKSHRSYSCQVTHEGSTVEKTVAPTEC

Kd [1]: 35.8 pM | koff [1]: 0.00102 s⁻¹ | kon [1]: 2.84e+07 M⁻¹ s⁻¹ | Kd [2]: 20.2 pM | koff [2]: 0.000516 s⁻¹ | kon [2]: 2.56e+07 M⁻¹ s⁻¹ | EC50 [5]: 59 pM | EC50 [4]: 80 pM
B2: Hu95-51yk (antibody, human IgG1, kappa, V domains shown)
VH: EVQLVQSGAEVKKPGASVKVSCRASGFTFTNYAIHWVKQAPGQRLEWMGLVYPYTGGTAYNQKFKDKVTLTFDTSASTAYMELSSLRSEDTAVYYCARWGMIPGTNSYFDVWGQGTTVTVSS
VL: EIVLTQSPATLSLSPGERATLSCRASSSVSYIHWYQQKPGQAPRPWIYATSNLASGIPARFSGSGSGTDYTLTISRLEPEDFAVYYCQQWNSNPWTFGGGTKVEIKR
